Measurements reported in the supplement of paper PMC12636428.

Test system: Saccharomyces cerevisiae
Test: transcriptional activation domain activity (GFP:mCherry ratio, weighted mean of sorted bins, harmonized to initial dataset scale) (arbitrary fluorescence ratio units); higher = stronger transcriptional activation
Details: beta-estradiol 1 µM; induction time 4 h
Procedure: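 53-aa protein tiles (fungal proteins plus yeast TF control tiles) fused C-terminally to a DBD-estrogen-binding domain-mCherry synthetic TF, integrated in S. cerevisiae (URA3 locus) with a GFP reporter. Cells were induced with 1 uM beta-estradiol for 4 h at 30 C, FACS-sorted into 8 bins by GFP:mCherry ratio and barcodes sequenced. Activity is the read-weighted mean bin fluorescence (GFP:mCherry), averaged over barcodes (median 12); tiles under 50 reads were discarded. New active-learning values were harmonized by linear fit onto the scale of the initial (Hummel et al.) dataset. The assay saturates at low and high signal.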

Sequence	transcriptional activation domain activity
MLYRVYLDIFFFLYCLFVLGAFQDTRRFLFKFWAFPLLKVWQVVTIHLTCTQY	61800
TENIERVLERGERIDLLVDKTGRLNVGANEFRRRSRGLRRRMWWKNVKLMALL	65200
MAGRKRAAAEDTTEKRETRSSKVAKTEGTKTAGKAAKGTARLKARLIISLTIL	34500
HLLIKILATRFFLEAKKTTYAPLNDQGTLMPSVEWTIMAQLWRLARNKWFEAT	51000
ANGSSATTPEPDGKTAAGTAAVPKRKQTEKKANGPTKKQKTGSPKKGGRKGAS	27700
EVMKVTPVQKQTRAGQRTRFKAFVAIGDYDGHVGLGVKCAKEVASAIRGAIIL	48700
MEVVEGGGWKSFVYSCIRVIFLWGLDFGYFGLVACLISFCIGIFFSFFFPHYF	27200
EKGNKRNDEEKGRGGEGRSTGRERREAKNGSAEGEGRERKQRRDGGEAGEGGT	45400
ADKKAKKAAPPPKPESSSSSDSSESDSDAPKAAATVKAAAAAVKKAGKKAVAS	60900
IAIQVMNRVLFFKAFKNVTRYSCAYKLCLVFFFFYIVINGKNFYVIEYAHLSM	49300
QTRQDEDHWQRVRELENQSSLYYLPIHEETPFFIDLIPNGFYLETKRSADNLF	92000
PPGRVAPDAESVGYVLHSRLLTLLFPLFFFSLPLYNSSLLAGWAGWGLMMITF	62900
RLDATAEEEAKRQRACEACRALKVRCDRGSDDSPCKRCEKARRECVITQPSRK	40300
EQWECTKLVLFSHFTIELPIIWLFHPVAEALGMTTYQVPFPSLQKMAIQIFLF	39400
MHRPVCSGQSPPFFSPTSPIHFILPFLFSIFSFPHGAGVSMHIGRLVLLFFFF	59300
MKACLRCLVFLLGCTSPWCFTRYLALEHFTLFWIDADLWWQVYRFSILVLLSY	44400
AIATPVCAAGDFPGNLLLHHSITIPFIYVTLSFFYIFALFLFFLLSIFLVAWL	50300
MLRLYHLMWDSGDYIYTIIGGWLPLPRDLMYVPFPGFYLKYMIFPTPLTLSVL	43600
MLARFKWSMWRMSLVRALRASLNITLFFYFLFPPRYSYVFLFLFLSFFLFFFS	32500
KAAEKPAPAVSPSAPAAKAVHHNNNSNAKKQEQQQQQRAKSPAAASASAPAPA	16600
MLTLLLLTLIIFLSSTLVLLFFFLIPLFLICLLTFLLIFFSSPRAFFSFPHPT	47800
GLFLVFGFWYIGVCSYGFLGFSLSLGGVYIRFFLYYHYQRILRLISLPFPVWF	59700
STACILLILVRYLGLIALVLNIIGFFSHEFTMESCQYYWRFMPIMQCFASWAS	61800
KPKAAAKAAKPAKKAAPEKAEKPEKPEKAKEVEKPEKPEKVSKPAAKKAAPVA	25000

Sequence	transcriptional activation domain activity
RAGGRGREKKKEAEGPKKRRRKGAGGGDGQRARRKDKGRRRGEIARTAEGRNG	20500
RMPKDCKSREFRDKAHDAVDAFAVDLEKRLRDENRPALLKLACLLMVLHQIEL	58600
GVERNHLSVFRPVSFSFSSWFMLLLFFCFRGVELVILFPDCSWFLCIPLFYSF	67700
MPFFSDFLFLFLFFFLEFFFFFFLPGFRLGYSSLFSSLLFFFFGFPIPPPHLS	46200
STARICQMYHWTGNVAIWTHCAILMHPHTIVLWHIWRWDSSWSQASYYFIFWI	37000
MRNDRGERKKEKRRREARERKKKERKGRREKGGKRKEEDEEKGRGGRGRRNGG	28600
KPESKEKEEEEEETETETETETKPEAKEEPKEEPKEEVNNEKEAEDAAAAEAK	27200
MFSWLYLSYFQPLWRAFISLFIFLRTLHQSSPSIFFISIILLFICFPLAMFAV	19200
MSSNYENQAQQESDQGSSSKSQKSRHRASVACATCRERRIRCVVPAGEASCAQ	43100
DDEDEEQEEEEEDVDPEVRRKEELRARMAKMSGGMGMAGMFGMMPMPGAGAPP	41500
GMFDGVYTGLGVKLPVDKLERYSAAEIAIMSWRVVYLYYWISFCILILCFILF	69900
SHSGVSRSGKRDASRSTSASGLGRNNGNASASGNGSRKGKRRSEGAGGRGKRV	13500
MVVLTICQLHHWNAGWDFHLLFWVCLFYSVKKLYDLILWLNFILTSKDLVKSN	40600
YTSLIILVTWLSIVFSKFVLHRRTFGLVFVHLHFFFLFALFSFFFSYCVCIRI	60600
WWGDTYFLFFPCLMYKFHVGFCLYMKWEMLYLLLFGRACDVFIMIGVVAVHVL	62400
RFYVYLLILLGCIIWINQCQYATDRSGYQRGHSAVLRALFYRLCRLLQTAITP	35000
AWPLHLTLGKIPKSIRYQDYHRACRVLAYFPIIHVKGGIIRPAWWWSHCKKLI	36300
MSSPNEKMDVDRASPDRRSKSSRNHSTETHRTKRSHRSRSRGGERDKERRDRR	34300
IMYSVIVSLLLFLFLLVLLRRYLVSLYYFTSLFLSPRLCARIAIVFRICLLYI	50300
GEDSTRSAKKPTNKRKKASTAGDEGRETKARKTAKGRAGTRVRKGRGAKTSSS	20500
MYYIVIYAFLYGIKYTHWIYFLSNNLVFWFLLLHFRHSHYGSLSYRYIIDHLL	62500
MLAWIYGVFFSRSIMYCPLILLITCALDFHFFYFSYLFLWGLFRLRGYIYHGW	52000
SGNTGENEEDIAFASGLNGGTFDSMLEALPDDLYFTDFVSPFTAAATTSVTTK	85100
EDAEATPAAAVEAEDDAMVVDSEEPKKKSKKDKKEKKDKKRKAAETTEAETAN	16400

Sequence	transcriptional activation domain activity
MLDVILYLPCLLITYLCWAVWFLFIVFLCFLLCWFCFVIDGLFPFFFITFVFL	56100
ALHHVAWWIIIFELFFTVGIIVALGLGGFGPHRGTVCRYLLYTTCSQACNSLY	35200
EEPKAEEAKAEEAAKEEPKAEESKAEEPKAEEPKAEEPKAEEEPKAEEAAKEE	7200
LIVGGGATGAGTALDAASRGLKVALVERDDFSAGTSSKSTKLVHGGVRYLQKA	51800
AKANGAAKAAAVKPKDDSSDSSDSDSESDEEKAPAKAKEAKKAEVCTCCLSTV	17500
AFLVGGGSAFWVLGYGLFYWASRLSLDSFTSVMLYLGYLLLLVLLVFLVTGTI	42700
ASQFPWAQIEITWRCLTYLCFDSFLELPQYWMLRQKFLVEHALLAYAARYCLV	54100
AGEAPIAEGQQAQEARPAAEGAGAGTENQPGRAEGEAAKAEAQAEQQQQQGQA	10300
KASGSARESVDGEEDKEEAKEKNKENVKVEEKLDADEGEKESKVKAEAAKEPG	20300
MCWACRILAAFPPPLPVFWFWFWFWFWFWFWFWLTAGWLAGFGFFVFAFCFLY	32500
MTFLHLYFSLSSCLLKTCLSFFVPTPQLLHFTSCIFICFIGTGVFFLYFPFLF	65700
MLLIWLYALKTGFVLSAVVSFGFWYSISLFFMYFIGKPLFHDSFFLFFSSFFL	57200
ILRLSVVLKPHHYWWFLLHLLLILLLVAFTCSSFLILKHGPVWILALFLLLHI	45400
MDILDIFFLFYSLLVSFLFFFLLITLLFLSPFISISFYFLTAFYVYFWVFFRA	34100
VLGNLLCAILFRNELWMRFLYLVFIYGLRGVSWAPLSIKYAATSILQHVGGIH	29200
MTILVILSILCLFQSYMGGMYSLDAHWVDIGLLRIYCNTLCIKMCQILMQFLL	22700
GLNLPKISASYLCQYRGSLIGKHFKAIVQLMCFLCYDLLPAPLLNAWLILGRL	70900
MASSTSPSPSTTSIKSEVAPGRTVACLRCRGRRQFCSKERPQCKKCRDARAEC	28800
VSTMLCYLNYCRTDVTVPTNSNPIFKLDNSLFLRLILLCNINLLLLLPFGLYL	47100
VISDSEDEKPPAKKAKTEEKAEKEEAKEDPEAKAKAVKEKEEAALKLATTRIL	40700
ERPREKKEHSRRHRDDEEKGRRRRHRSRSRSRDRRERRRERSRSRERRRGGDE	13000
IIVICSVALYKVVSITGVGLVCLLLAGYLCFFNLFCSNVIRLSLLFLPINARP	58000
KAVFKALPILVVASVGCASTNLLIRTVIIWRKEHLVISVLLLLYVGHWTILFV	32100
